Read-outs that look alike come from different tables or passages of the source. Values belong to the molecule of their own block, whether it stands above or below them.
Assays:
Assay in all cases: radioligand binding
[1] = target: CXCR3-B (alternatively spliced variant of CXCR3) (human) (UniProt P49682)
[2] = target: CXCR3-A (classic CXC chemokine receptor 3) (human) (UniProt P49682)
[3] = target: CXCR3-B (alternatively spliced variant of CXCR3) (human) (UniProt P49682); remark: listed apart in the source
[4] = target: CXCR3-B on the renal carcinoma ACHN cell line (human (endogenous in ACHN)) (UniProt P49682)
[5] = target: T1, CXCR3-B on the renal carcinoma ACHN cell line (human (endogenous in ACHN), UniProt P49682-2 1-415)
T1 sequence (looked up): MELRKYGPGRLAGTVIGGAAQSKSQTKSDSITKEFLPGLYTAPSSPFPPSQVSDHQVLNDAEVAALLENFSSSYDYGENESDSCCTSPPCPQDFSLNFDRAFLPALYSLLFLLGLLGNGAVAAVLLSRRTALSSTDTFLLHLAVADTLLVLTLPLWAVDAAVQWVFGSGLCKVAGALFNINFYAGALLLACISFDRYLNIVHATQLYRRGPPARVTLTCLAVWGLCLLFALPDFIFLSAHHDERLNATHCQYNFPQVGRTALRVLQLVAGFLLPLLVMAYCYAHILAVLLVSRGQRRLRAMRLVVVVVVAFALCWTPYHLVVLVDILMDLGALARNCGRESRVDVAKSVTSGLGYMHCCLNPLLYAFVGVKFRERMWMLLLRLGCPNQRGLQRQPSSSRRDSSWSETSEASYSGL

[6] = target: T2, CXCR3-A (classic CXC chemokine receptor 3) (human, UniProt P49682-1 1-368)
T2 sequence (looked up): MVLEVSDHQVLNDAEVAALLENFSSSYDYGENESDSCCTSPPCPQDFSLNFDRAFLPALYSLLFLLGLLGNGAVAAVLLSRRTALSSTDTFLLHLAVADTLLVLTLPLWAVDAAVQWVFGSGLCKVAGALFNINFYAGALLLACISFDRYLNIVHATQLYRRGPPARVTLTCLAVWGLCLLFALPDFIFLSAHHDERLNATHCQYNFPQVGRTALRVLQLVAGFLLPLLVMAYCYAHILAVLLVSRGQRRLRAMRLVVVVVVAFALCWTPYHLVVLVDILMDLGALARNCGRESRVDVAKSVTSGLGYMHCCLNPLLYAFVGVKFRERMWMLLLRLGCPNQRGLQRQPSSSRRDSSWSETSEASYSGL

[7] = target: T3, CXCR3-B (alternatively spliced variant of CXCR3) (human, UniProt P49682-2 1-415)
T3 sequence (looked up): T1 sequence (looked up)

- IC50 [1]: 0.00185 µM
- IC50 [2]: 0.448 µM
- IC50 [3]: 0.00746 µM
- IC50 [4]: 0.00683 µM
Molecule: CXCL4/PF4 (platelet factor 4) (ligand)

- IC50 [5]: 0.0885 ± 0.0693 µM
- IC50 [6]: 0.033 ± 0.024 µM
- IC50 [7]: 0.133 ± 0.0465 µM
B1: CXCL9/Mig (ligand, human, UniProt Q07325 23-125, looked up)
chain: TPVVRKGRCSCISTNQGTIHLQSLKDLKQFAPSPSCEKIEIIATLKNGVQTCLNPDSADVKELIKKWEKQVSQKKKQKNGKKHQKKKVLKVRKSQRSRQKKTT

- IC50 [5]: 0.0496 ± 0.0113 µM
- IC50 [6]: 0.00041 ± 0.00014 µM
- IC50 [7]: 0.032 ± 0.0102 µM
B2: CXCL11/I-TAC (ligand, human, UniProt O14625 22-94, looked up)
chain: FPMFKRGRCLCIGPGVKAVKVADIEKASIMYPSNNCDKIEVIITLKENKGQRCLNPKSKQARLIIKKVERKNF

Source: PMC2193908 (The Journal of Experimental Medicine, 2003)
